In PMC10403316:
Values joined by “and” are separate entries in the source; they are usually repeats but may differ in a detail not shown here. Identical values can stand only once.

Experiments:
[1] = target: human UBR5 E3 ubiquitin ligase, full length, with an N-terminal FLAG tag (human) (UniProt O95071); assay: SEC; conditions: remark: other sources report otherwise
[2] = target: human UBR5 E3 ubiquitin ligase, full length, with an N-terminal FLAG tag (human) (UniProt O95071); assay: cryo-EM structure; conditions: remark: other sources report otherwise

stoichiometry N [1]: 2 and 4
stoichiometry N [2]: 2
Substance: human UBR5 E3 ubiquitin ligase, full length, with an N-terminal FLAG tag, O95071 1-2799
